Data published in IntAct's records for PubMed 22632967.

B1: Ribonucleoside-diphosphate reductase subunit M2 (Homo sapiens), P31350 (parent)
chain: MLSLRVPLAPITDPQQLQLSPLKGLSLVDKENTPPALSGTRVLASKTARRIFQEPTEPKTKAAAPGVEDEPLLRENPRRFVIFPIEYHDIWQMYKKAEASFWTAEEVDLSKDIQHWESLKPEERYFISHVLAFFAASDGIVNENLVERFSQEVQITEARCFYGFQIAMENIHSEMYSLLIDTYIKDPKEREFLFNAIETMPCVKKKADWALRWIGDKEATYGERVVAFAAVEGIFFSGSFASIFWLKKRGLMPGLTFSNELISRDEGLHCDFACLMFKHLVHKPSEERVREIIINAVRIEQEFLTEALPVKLIGMNCTLMKQYIEFVADRLMLELGFSKVFRVENPFDFMENISLEGKTNFFEKRVGEYQRMGVMSSPTENSFTLDADF
partner: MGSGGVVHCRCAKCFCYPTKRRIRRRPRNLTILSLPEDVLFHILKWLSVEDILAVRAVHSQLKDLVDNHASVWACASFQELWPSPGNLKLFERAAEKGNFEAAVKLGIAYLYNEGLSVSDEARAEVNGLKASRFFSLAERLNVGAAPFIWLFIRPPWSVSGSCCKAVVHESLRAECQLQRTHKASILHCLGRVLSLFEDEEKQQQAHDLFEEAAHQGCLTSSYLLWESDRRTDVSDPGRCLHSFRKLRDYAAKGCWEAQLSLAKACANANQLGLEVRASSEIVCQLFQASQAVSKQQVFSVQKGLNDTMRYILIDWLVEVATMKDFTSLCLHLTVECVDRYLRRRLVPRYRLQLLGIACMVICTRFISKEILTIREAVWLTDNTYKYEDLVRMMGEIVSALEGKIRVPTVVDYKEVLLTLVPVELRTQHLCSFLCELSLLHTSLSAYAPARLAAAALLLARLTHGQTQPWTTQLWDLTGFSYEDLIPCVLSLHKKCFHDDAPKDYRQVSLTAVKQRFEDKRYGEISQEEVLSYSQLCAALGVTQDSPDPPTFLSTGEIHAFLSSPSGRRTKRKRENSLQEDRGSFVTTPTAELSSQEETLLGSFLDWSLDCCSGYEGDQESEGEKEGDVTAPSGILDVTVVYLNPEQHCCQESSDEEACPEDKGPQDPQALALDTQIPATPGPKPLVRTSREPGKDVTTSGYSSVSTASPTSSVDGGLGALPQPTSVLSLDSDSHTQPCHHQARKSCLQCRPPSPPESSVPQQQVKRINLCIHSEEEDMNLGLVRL
B2: Cyclin-F (Homo sapiens), P41002 (parent)
chain: B1 partner
partner: B1 chain
B3: Cyclin-F (Homo sapiens), P41002 (parent)
chain: B1 partner

Variants of: B1
Settings: with ccnf_human CCNF

| Variant | effect of a mutation on the interaction |
| --- | --- |
| R49A;I51A | disrupting interaction strength |
| T33A | decreasing interaction strength |

Variants of: B1
Settings: with ccnf_human CCNF
Remark: another data set of the same source

| Variant | effect of a mutation on the interaction |
| --- | --- |
| T33A | disrupting interaction strength |

Variants of: B2
Settings: with rir2_human RRM2, P31350

| Variant | effect of a mutation on the interaction |
| --- | --- |
| L35A;P36A | increasing interaction strength |

Variants of: B3
Settings: with cp110_human CCP110, O43303
cp110_human CCP110, O43303, sequence (O43303 whole entry): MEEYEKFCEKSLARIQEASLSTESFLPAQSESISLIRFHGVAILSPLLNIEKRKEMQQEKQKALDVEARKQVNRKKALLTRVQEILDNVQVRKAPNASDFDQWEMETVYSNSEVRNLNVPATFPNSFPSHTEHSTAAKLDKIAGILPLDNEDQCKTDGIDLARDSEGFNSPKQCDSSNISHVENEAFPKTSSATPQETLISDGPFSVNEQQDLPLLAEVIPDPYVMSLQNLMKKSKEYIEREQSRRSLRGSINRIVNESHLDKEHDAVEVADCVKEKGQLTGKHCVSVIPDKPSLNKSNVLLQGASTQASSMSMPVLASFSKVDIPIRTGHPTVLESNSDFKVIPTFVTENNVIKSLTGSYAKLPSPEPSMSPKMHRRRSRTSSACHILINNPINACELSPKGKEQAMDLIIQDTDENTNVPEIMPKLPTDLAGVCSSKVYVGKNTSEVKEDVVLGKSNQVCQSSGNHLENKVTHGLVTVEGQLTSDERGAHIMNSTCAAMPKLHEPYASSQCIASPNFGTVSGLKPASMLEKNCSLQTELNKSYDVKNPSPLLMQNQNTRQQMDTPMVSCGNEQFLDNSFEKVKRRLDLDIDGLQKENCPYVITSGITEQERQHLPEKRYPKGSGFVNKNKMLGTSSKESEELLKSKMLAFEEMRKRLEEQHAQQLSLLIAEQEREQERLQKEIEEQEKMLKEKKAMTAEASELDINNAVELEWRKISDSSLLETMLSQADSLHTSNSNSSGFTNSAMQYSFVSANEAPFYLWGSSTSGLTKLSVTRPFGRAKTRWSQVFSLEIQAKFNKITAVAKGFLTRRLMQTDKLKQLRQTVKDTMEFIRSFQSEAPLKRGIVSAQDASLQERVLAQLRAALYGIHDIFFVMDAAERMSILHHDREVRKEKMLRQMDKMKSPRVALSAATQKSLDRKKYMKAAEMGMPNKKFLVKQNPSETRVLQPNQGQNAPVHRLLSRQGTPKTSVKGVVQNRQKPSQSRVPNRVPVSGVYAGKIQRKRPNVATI

| Variant | effect of a mutation on the interaction |
| --- | --- |
| L35A;P36A | increasing interaction strength |
